These results are taken from patent publication US20260184782A1 (TWIST BIOSCIENCE, published 2026).

Changes are numbered by the printed parent chain.

For this assay, the target named is T1, recombinant human TIGIT (human, UniProt Q495A1 22-141, limits assumed).
T1 construct: recombinant human TIGIT used in Carterra SPR; also called hTIGIT
T1 sequence (looked up): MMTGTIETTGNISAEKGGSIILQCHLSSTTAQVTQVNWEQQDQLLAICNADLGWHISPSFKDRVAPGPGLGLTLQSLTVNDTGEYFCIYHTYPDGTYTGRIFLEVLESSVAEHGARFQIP
Description: SPR Carterra, average. As to the method: Binding affinities of VHH-Fc proteins to recombinant human TIGIT were measured by SPR using a Carterra instrument (Table 10A). […] Average values reported from measurements from 1-2 samples.

What is called Kd is a measure of binding affinity in units of concentration. A word on the koff: it is the rate constant with which the complex falls apart. In general, kon refers to the rate constant with which the complex forms.

B1: TIGIT-SC204 (Fc fusion)
VHH: EVQLVESGGGLVQPGGSLRLSCAASGFLFNSYWMVWFRQAPGKEREFVAAIWRSGTLKAYADSVKGRFTISADNSKNTAYLQMNSLKPEDTAVYYCAADVNYGSTWRNWGQGTLVTVSS
notes: VHH-Fc fusion in assay
In the case of B1, the Kd was 66.7 nM, the off-rate constant (koff) worked out at 0.00339 s⁻¹ and the kon is 50800 M⁻¹ s⁻¹.

B2: TIGIT-SC145 (Fc fusion)
VHH: EVQLVESGGGLVQPGGSLRLSCAASGNTFSGGFTLGYYVMGWFRQAPGKEREFVAAISRSGTLKAYADGVKGRFTISADNSKNTAYLQMNSLKPEDTAVYYCARVEAYGDPLGYWGQGTLVTVSS
notes: VHH-Fc fusion in assay
Turning to B2, the Kd turned out to be 47.9 nM, the koff stood at 0.0108 s⁻¹ and the kon was determined as 226000 M⁻¹ s⁻¹.

B3: TIGIT-SC149 (Fc fusion)
VHH: EVQLVESGGGLVQPGGSLRLSCAASGFTLENNMMGWFRQAPGKEREFVAAISRSGTLKAYADSVKGRFTISADNSKNTAYLQMNSLKPEDTAVYYCAKVQGPYCSGGSCYLYTFDLWGQGTLVTVSS
notes: VHH-Fc fusion in assay
Regarding B3, the equilibrium dissociation constant (Kd) worked out at 35 nM, the koff stood at 0.0043 s⁻¹ and the kon stood at 123000 M⁻¹ s⁻¹.

B4: TIGIT-SC129 (Fc fusion)
VHH: EVQLVESGGGLVQPGGSLRLSCAASGPTLGSYVMGWFRQAPGKEREFVAAISGSGDDTYYADSVKGRFTISADNSKNTAYLQMNSLKPEDTAVYYCARWREFPGYYFAIDVWGQGTLVTVSS
notes: VHH-Fc fusion in assay
In the case of B4, the Kd came to 43.9 nM, the koff is 0.00191 s⁻¹ and the on-rate (kon) was 43700 M⁻¹ s⁻¹.

B5: TIGIT-SC130 (Fc fusion)
VHH: B4 VHH with M34T, G55S
notes: VHH-Fc fusion in assay
Regarding B5, the Kd was determined as 73 nM, the koff came to 0.00526 s⁻¹ and the kon is 72000 M⁻¹ s⁻¹.

B6: TIGIT-SC85 (Fc fusion)
VHH: EVQLVESGGGLVQPGGSLRLSCAASGRTFSPYTMGWFRQAPGKEREWVAGISQSGGSTAYADSVKGRFTISADNSKNTAYLQMNSLKPEDTAVYYCARDLNAMGDAYDIWGQGTLVTVSS
notes: VHH-Fc fusion in assay
As to B6, the Kd stood at 44.6 nM, the koff came out at 0.000599 s⁻¹ and the kon turned out to be 8760 M⁻¹ s⁻¹.

B7: TIGIT-SC182 (Fc fusion)
VHH: EVQLVESGGGLVQPGGSLRLSCAASGFTFSSSSMGWFRQAPGKEREFVAAINWSGGSTSYADSVKGRFTISADNSKNTAYLQMNSPKPEDTAVYYCAKDRSYSFDYWGQGTLVTVSS
notes: VHH-Fc fusion in assay
As for B7, the Kd was 60.6 nM, the dissociation rate constant (koff) was 0.00722 s⁻¹ and the kon stood at 119000 M⁻¹ s⁻¹.

B8: TIGIT-SC66 (Fc fusion)
VHH: EVQLVESGGGLVQPGGSLRLSCAASGTTFSSAAMGWFRQAPGKEREWVASVLRGGYTWYADSVKGRFTISADNSKNTAYLQMNSLKPEDTAVYYCVTDPRQWLGHDYWGQGTLVTVSS
notes: VHH-Fc fusion in assay
Take B8: the Kd is 39.1 nM, the koff stood at 0.00116 s⁻¹ and the kon was determined as 29700 M⁻¹ s⁻¹.

B9: TIGIT-SC44 (Fc fusion)
VHH: EVQLVESGGGLVQPGGSLRLSCAASGSIFGLGAMGWFRQAPGKERELVAITWGGSTTLYADSVKGRFTISADNSKNTAYLQMNSLKPEDTAVYYCATDQGQWLFDFWGQGTLVTVSS
notes: VHH-Fc fusion in assay
With B9, the Kd was determined as 35.1 nM, the koff came to 0.0124 s⁻¹ and the on-rate constant (kon) was 354000 M⁻¹ s⁻¹.

B10: TIGIT-SC53 (Fc fusion)
VHH: EVQLVESGGGLVQPGGSLRLSCAASGFTFSPSWMGWFRQAPGKEREWVASVLRGGYTWYADSVKGRFTISADNSKNTAYLQMNSLKPEDTAVYYCARESTIVGAIDSWGQGTLVTVSS
notes: VHH-Fc fusion in assay
Turning to B10, the Kd worked out at 55.4 nM, the koff turned out to be 0.0027 s⁻¹ and the on-rate constant (kon) was 48800 M⁻¹ s⁻¹.

B11: TIGIT-SC5 (Fc fusion)
VHH: EVQLVESGGGLVQPGGSLRLSCAASGFAFGDSWMGWFRQAPGKEREWVASVLRGGYTWYADSVKGRFTISADNSKNTAYLQMNSLKPEDTAVYYCARESEGWFDPWGQGTLVTVSS
notes: VHH-Fc fusion in assay
For the molecule B11, the Kd turned out to be 51.4 nM, the koff stood at 0.00216 s⁻¹ and the kon is 42000 M⁻¹ s⁻¹.

B12: TIGIT-SC183 (Fc fusion)
VHH: B11 VHH with R97K, E98D, S99R, E100S, G101Y, W102S, P105Y
notes: VHH-Fc fusion in assay
With B12, the Kd amounted to 55.2 nM, the off-rate (koff) was 0.00495 s⁻¹ and the kon was found to be 90400 M⁻¹ s⁻¹.

B13: TIGIT-SC29 (Fc fusion)
VHH: EVQLVESGGGLVQPGGSLRLSCAASGFTLENNMMGWFRQAPGKERELVAAIDWSGGSTIYADSVKGRFTISADNSKNTAYLQMNSLKPEDTAVYYCARGHDYGDYIAYWGQGTLVTVSS
notes: VHH-Fc fusion in assay
Consider B13, for which the Kd worked out at 59.2 nM, the koff was 0.00287 s⁻¹ and the kon turned out to be 48700 M⁻¹ s⁻¹.

B14: TIGIT-SC142 (Fc fusion)
VHH: EVQLVESGGGLVQPGGSLRLSCAASGFSFDRWAMGWFRQAPGKEREFVAAIGWSGNLKAYADSVKGRFTISADNSKNTAYLQMNSLKPEDTAVYYCASGDGYSMDYFDPWGQGTLVTVSS
notes: VHH-Fc fusion in assay
In the case of B14, the Kd was 66.5 nM, the dissociation rate constant (koff) is 0.0213 s⁻¹ and the kon is 320000 M⁻¹ s⁻¹.

B15: TIGIT-SC131 (Fc fusion)
VHH: EVQLVESGGGLVQPGGSLRLSCAASGDTSEIYDMGWFRQAPGKEREFVAITWNSGRIGSNGFATYADSVKGRFTISADNSKNTAYLQMNSLKPEDTAVYYCARWAVGQAFDLWGQGTLVTVSS
notes: VHH-Fc fusion in assay
For the molecule B15, the Kd amounted to 41 nM, the off-rate constant (koff) was found to be 0.0278 s⁻¹ and the kon is 677000 M⁻¹ s⁻¹.

B16: TIGIT-SC65 (Fc fusion)
VHH: EVQLVESGGGLVQPGGSLRLSCAASGFTFGNYDMGWFRQAPGKEREFVAAITGSGRSTYYADSVKGRFTISADNSKNTAYLQMNSLKPEDTAVYYCARGRIAASGTKVYWYFDLWGQGTLVTVSS
notes: VHH-Fc fusion in assay
In the case of B16, the Kd is 44.9 nM, the koff was determined as 0.0249 s⁻¹ and the kon was 1.09e+06 M⁻¹ s⁻¹.

B17: TIGIT-SC15 (Fc fusion)
VHH: EVQLVESGGGLVQPGGSLRLSCAASGSILSFNHIGWFRQAPGKEREGVAWIARYDGSTLYADSVKGRFTISADNSKNTAYLQMNSLKPEDTAVYYCARARGGYVDYWGQGTLVTVSS
notes: VHH-Fc fusion in assay
Consider B17, for which the Kd turned out to be 62 nM, the koff turned out to be 0.00814 s⁻¹ and the kon stood at 143000 M⁻¹ s⁻¹.

B18: TIGIT-SC133 (Fc fusion)
VHH: EVQLVESGGGLVQPGGSLRLSCAASGFTLENNMMGWFRQAPGKEREFVAAISASGTLRAYADSVKGRFTISADNSKNTAYLQMNSLKPEDTAVYYCACGRVSGAFIYFDYWGQGTLVTVSS
notes: VHH-Fc fusion in assay
Turning to B18, the Kd stood at 41.9 nM, the koff was 0.00561 s⁻¹ and the kon stood at 158000 M⁻¹ s⁻¹.

B19: TIGIT-SC162 (Fc fusion)
VHH: EVQLVESGGGLVQPGGSLRLSCAASGNTFSGGFMGWFRQAPGKEREWVASVLRGGYTWYADSVKGRFTISADNSKNTAYLQMNSLKPEDTAVYYCTTDRAIGVRPLFDHWGQGTLVTVSS
notes: VHH-Fc fusion in assay
In the case of B19, the Kd stood at 126 nM, the off-rate constant (koff) came out at 0.0203 s⁻¹ and the kon amounted to 622000 M⁻¹ s⁻¹.

B20: TIGIT-SC144 (Fc fusion)
VHH: EVQLVESGGGLVQPGGSLRLSCAASGFTLENNMMGWFRQAPGKEREFVAAISPSGTLRAYADSVKGRFTISADNSKNTAYLQMNSLKPEDTAVYYCAGIHDSGVPLGNWGQGTLVTVSS
notes: VHH-Fc fusion in assay
With B20, the Kd turned out to be 41 nM, the koff amounted to 0.00574 s⁻¹ and the kon was 140000 M⁻¹ s⁻¹.

B21: TIGIT-SC72 (Fc fusion)
VHH: EVQLVESGGGLVQPGGSLRLSCAASGGLTFSSYAMGWFRQAPGKEREFVAAISWSGGRTYYADSVKGRFTISADNSKNTAYLQMNSLKPEDTAVYYCARWSAKRHSDTMTYYMDVWGQGTLVTVSS
notes: VHH-Fc fusion in assay
Consider B21, for which the Kd came out at 48.1 nM, the dissociation rate constant (koff) was found to be 0.00168 s⁻¹ and the kon worked out at 34900 M⁻¹ s⁻¹.

B22: TIGIT-SC132 (Fc fusion)
VHH: EVQLVESGGGLVQPGGSLRLSCAASGFTLENNMMGWFRQAPGKEREFVAAISASGTLRAYADSVKGRFTISADNSKNTAYLQMNSLKPEDTAVYYCATWRPNRGRYYDWYFDLWGQGTLVTVSS
notes: VHH-Fc fusion in assay
For B22, the dissociation constant (Kd) was found to be 45.6 nM, the koff was found to be 0.00347 s⁻¹ and the on-rate (kon) is 197000 M⁻¹ s⁻¹.

B23: TIGIT-SC164 (Fc fusion)
VHH: EVQLVESGGGLVQPGGSLRLSCAASGFTFDRSWMGWFRQAPGKEREFVASVLRGGYTWYADSVKGRFTISADNSKNTAYLQMNSLKPEDTAVYYCTTEGSGWRNWGQGTLVTVSS
notes: VHH-Fc fusion in assay
B23: the Kd came out at 55.7 nM, the koff was 0.00258 s⁻¹ and the kon turned out to be 52800 M⁻¹ s⁻¹.

B24: TIGIT-SC139 (Fc fusion)
VHH: EVQLVESGGGLVQPGGSLRLSCAASGFTLENNMMGWFRQAPGKEREFVAAISRSGTLKAYADSVKGRFTISADNSKNTAYLRMNSLKPEDTAVYYCAGLTSGGAFSYYWGQGTLVTVSS
notes: VHH-Fc fusion in assay
As to B24, the Kd is 55.2 nM, the koff is 0.00778 s⁻¹ and the kon was determined as 141000 M⁻¹ s⁻¹.

B25: TIGIT-SC16 (Fc fusion)
VHH: EVQLVESGGGLVQPGGSLRLSCAASGTTFSSAAMGWFRQAPGKEREWVASVLRGGYTWYADSVKGRFTISADNSKNTAYLQMNSLKPEDTAVYYCARDPVELGDYWGQGTLVTVSS
notes: VHH-Fc fusion in assay
On to B25, for which the Kd is 52.6 nM, the koff was found to be 0.00387 s⁻¹ and the on-rate (kon) was determined as 80100 M⁻¹ s⁻¹.

B26: TIGIT-SC128 (Fc fusion)
VHH: EVQLVESGGGLVQPGGSLRLSCAASGFIGNYHAMGWFRQAPGKEREFVARITSGGSTYYADSVKGRFTISADNSKNTAYLQMNSLKPEDTAVYYCGGFGNWGQGTLVTVSS
notes: VHH-Fc fusion in assay
Turning to B26, the Kd came to 45.4 nM, the koff was 0.00708 s⁻¹ and the kon is 158000 M⁻¹ s⁻¹.
